{
  "source": "paper PMC5375031",
  "about": "(Nature, 2017)",
  "binders": {"B1": {"name": "CITED2 transactivation domain peptide (residues 216-269) (peptide, UniProt Q99967 216-269, looked up)", "chain": "NVIDTDFIDEEVLMSLVIEMGLDRIKELPELWLGQNEFDFMTDFVCKQQPSRVS"}, "B2": {"name": "CITED2 216-269 labeled with Alexa Fluor 594 at Cys 261 (peptide, UniProt Q99967 216-269, looked up)", "chain": "NVIDTDFIDEEVLMSLVIEMGLDRIKELPELWLGQNEFDFMTDFVC(Alexa Fluor 594)KQQPSRVS"}, "B3": {"name": "HIF-1α 776-826 C800V labeled with Alexa Fluor 488 at position 780 (peptide, UniProt Q16665 776-826, looked up)", "chain": "SDLAC(Alexa Fluor 488)RLLGQSMDESGLPQLTSYDVEVNAPIQGSRNLLQGEELLRALDQVN"}, "B4": {"name": "HIF-1α 776-826 C800V labeled with Alexa Fluor 594 at position 780 (peptide, UniProt Q16665 776-826, looked up)", "chain": "SDLAC(Alexa Fluor 594)RLLGQSMDESGLPQLTSYDVEVNAPIQGSRNLLQGEELLRALDQVN"}, "B5": {"name": "HIF-1α C-terminal transactivation domain peptide (residues 776-826) (peptide, UniProt Q16665 776-826, looked up)", "chain": "SDLACRLLGQSMDESGLPQLTSYDCEVNAPIQGSRNLLQGEELLRALDQVN"}},
  "key": {"[1]": {"target": "T1, TAZ1 domain of CBP (residues 340-439 of mouse CBP) (mouse, UniProt P45481 340-439)", "T1 sequence (P45481 340-439)": "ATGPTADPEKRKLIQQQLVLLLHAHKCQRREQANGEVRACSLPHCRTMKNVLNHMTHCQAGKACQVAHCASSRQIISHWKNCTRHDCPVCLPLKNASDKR", "assay": "fluorescence polarisation + BLI"}, "[2]": {"target": "T1, TAZ1 domain of CBP (residues 340-439 of …)", "assay": "fluorescence polarisation"}, "[3]": {"target": "T1, TAZ1 domain of CBP (residues 340-439 of …)", "assay": "stopped-flow fluorescence"}, "[4]": {"target": "T1, TAZ1 domain of CBP (residues 340-439 of …)", "assay": "fluorescence polarisation", "remark": "listed apart in the source"}},
  "note": "Where no end group is shown, it is not given here.",
  "data": [
    {"binder": "B1", "values": [
      {"measurement": "Kd", "setting": "[1]", "value": 10, "unit": "nM"}
    ]},
    {"binder": "B2", "values": [
      {"measurement": "binding result", "setting": "[2]", "value": "binds"}
    ]},
    {"binder": "B3", "values": [
      {"measurement": "binding result", "setting": "[3]", "value": "binds"}
    ]},
    {"binder": "B4", "values": [
      {"measurement": "binding result", "setting": "[4]", "value": "binds"}
    ]},
    {"binder": "B5", "values": [
      {"measurement": "apparent Kd (displacing labeled HIF-1α from TAZ1)", "setting": "[4]", "value": "10 ± 1", "unit": "nM"},
      {"measurement": "Kd", "setting": "[1]", "value": 10, "unit": "nM"}
    ]}
  ]
}
